B1: OT-001569: ER-DD (T371A, L384M, M421G, N519S, G521R, Y537S) fused to flexi IL12 (protein)
chain: MCHQQLVISWFSLVFLASPLVAGSSLALSLTADQMVSALLDAEPPILYSEYDPTRPFSEASMMGLLTNLADRELVHMINWAKRVPGFVDLALHDQVHLLECAWMEILMIGLVWRSMEHPGKLLFAPNLLLDRNQGKCVEGGVEIFDMLLATSSRFRMMNLQGEEFVCLKSIILLNSGVYTFLSSTLKSLEEKDHIHRVLDKITDTLIHLMAKAGLTLQQQHQRLAQLLLILSHIRHMSSKRMEHLYSMKCKNVVPLSDLLLEMLDAHRLGSIWELKKDVYVVELDWYPDAPGEMVVLTCDTPEEDGITWTLDQSSEVLGSGKTLTIQVKEFGDAGQYTCHKGGEVLSHSLLLLHKKEDGIWSTDILKDQKEPKNKTFLRCEAKNYSGRFTCWWLTTISTDLTFSVKSSRGSSDPQGVTCGAATLSAERVRGDNKEYEYSVECQEDSACPAAEESLPIEVMVDAVHKLKYENYTSSFFIRDIIKPDPPKNLQLKPLKNSRQVEVSWEYPDTWSTPHSYFSLTFCVQVQGKSKREKKDRVFTDKTSATVICRKNASISVRAQDRYYSSSWSEWASVPCSGGGGSGGGGSGGGGSRNLPVATPDPGMFPCLHHSQNLLRAVSNMLQKARQTLEFYPCTSEEIDHEDITKDKTSTVEACLPLELTKNESCLNSRETSFITNGSCLASRKTSFMMALCLSSIYEDLKMYQVEFKTMNAKLLMDPKRQIFLDQNMLAVIDELMQALNFNSETVPQKSSLEEPDFYKTKIKLCILLHAFRIRAVTIDRVMSYLNAS
B2: OT-001791: CD8α leader; Linker (RS); ER (T371A, L384M, M421G, N519S, G521R, Y537S); Furin cleavage site; CD19 CAR; SEQ ID NO. 404 (protein)
chain: MALPVTALLLPLALLLHAARPRSSLALSLTADQMVSALLDAEPPILYSEYDPTRPFSEASMMGLLTNLADRELVHMINWAKRVPGFVDLALHDQVHLLECAWMEILMIGLVWRSMEHPGKLLFAPNLLLDRNQGKCVEGGVEIFDMLLATSSRFRMMNLQGEEFVCLKSIILLNSGVYTFLSSTLKSLEEKDHIHRVLDKITDTLIHLMAKAGLTLQQQHQRLAQLLLILSHIRHMSSKRMEHLYSMKCKNVVPLSDLLLEMLDAHRLGTGAEDPRPSRKRRSLGDVGEIVMTQSPATLSLSPGERATLSCRASQDISKYLNWYQQKPGQAPRLLIYHTSRLHSGIPARFSGSGSGTDYTLTISSLQPEDFAVYFCQQGNTLPYTFGQGTKLEIKGGGGSGGGGSGGGGSQVQLQESGPGLVKPSETLSLTCTVSGVSLPDYGVSWIRQPPGKGLEWIGVIWGSETTYYSSSLKSRVTISKDNSKNQVSLKLSSVTAADTAVYYCAKHYYYGGSYAMDYWGQGTLVTVSSTTTPAPRPPTPAPTIASQPLSLRPEACRPAAGGAVHTRGLDFACDIYIWAPLAGTCGVLLLSLVITLYCKRGRKKLLYIFKQPFMRPVQTTQEEDGCSCRFPEEEEGGCELRVKFSRSADAPAYKQGQNQLYNELNLGRREEYDVLDKRRGRDPEMGGKPRRKNPQEGLYNELQKDKMAEAYSEIGMKGERRRGKGHDGLYQGLSTATKDTYDALHMQALPPR
B3: OT-001737: ER-DD fused to flexi IL12, with or without intervening furin site (protein)
chain: MCHQQLVISWFSLVFLASPLVAGSSLALSLTADQMVSALLDAEPPILYSEYDPTRPFSEASMMGLLTNLADRELVHMINWAKRVPGFVDLALHDQVHLLECAWMEILMIGLVWRSMEHPGKLLFAPNLLLDRNQGKCVEGGVEIFDMLLATSSRFRMMNLQGEEFVCLKSIILLNSGVYTFLSSTLKSLEEKDHIHRVLDKITDTLIHLMAKAGLTLQQQHQRLAQLLLILSHIRHMSSKRMEHLYSMKCKNVVPLSDLLLEMLDAHRLRTKRIWELKKDVYVVELDWYPDAPGEMVVLTCDTPEEDGITWTLDQSSEVLGSGKTLTIQVKEFGDAGQYTCHKGGEVLSHSLLLLHKKEDGIWSTDILKDQKEPKNKTFLRCEAKNYSGRFTCWWLTTISTDLTFSVKSSRGSSDPQGVTCGAATLSAERVRGDNKEYEYSVECQEDSACPAAEESLPIEVMVDAVHKLKYENYTSSFFIRDIIKPDPPKNLQLKPLKNSRQVEVSWEYPDTWSTPHSYFSLTFCVQVQGKSKREKKDRVFTDKTSATVICRKNASISVRAQDRYYSSSWSEWASVPCSGGGGSGGGGSGGGGSRNLPVATPDPGMFPCLHHSQNLLRAVSNMLQKARQTLEFYPCTSEEIDHEDITKDKTSTVEACLPLELTKNESCLNSRETSFITNGSCLASRKTSFMMALCLSSIYEDLKMYQVEFKTMNAKLLMDPKRQIFLDQNMLAVIDELMQALNFNSETVPQKSSLEEPDFYKTKIKLCILLHAFRIRAVTIDRVMSYLNAS
B4: OT-001356: IL12-CD19 CAR tandem construct listed without ER DD mutation in Table 13 (control) (protein)
chain: IWELKKDVYVVELDWYPDAPGEMVVLTCDTPEEDGITWTLDQSSEVLGSGKTLTIQVKEFGDAGQYTCHKGGEVLSHSLLLLHKKEDGIWSTDILKDQKEPKNKTFLRCEAKNYSGRFTCWWLTTISTDLTFSVKSSRGSSDPQGVTCGAATLSAERVRGDNKEYEYSVECQEDSACPAAEESLPIEVMVDAVHKLKYENYTSSFFIRDIIKPDPPKNLQLKPLKNSRQVEVSWEYPDTWSTPHSYFSLTFCVQVQGKSKREKKDRVFTDKTSATVICRKNASISVRAQDRYYSSSWSEWASVPCSGGGGSGGGGSGGGGSRNLPVATPDPGMFPCLHHSQNLLRAVSNMLQKARQTLEFYPCTSEEIDHEDITKDKTSTVEACLPLELTKNESCLNSRETSFITNGSCLASRKTSFMMALCLSSIYEDLKMYQVEFKTMNAKLLMDPKRQIFLDQNMLAVIDELMQALNFNSETVPQKSSLEEPDFYKTKIKLCILLHAFRIRAVTIDRVMSYLNASGS

Experiments:
Type in all cases: cell-based, human
HEK 293T cells = test: IL12 expression of ER-DD flexi IL12 constructs in transiently transfected HEK 293T cells (MSD assay); details: for IL12 expression, 1 μM BZD / IL12 expression, Vehicle: HEK 293T transiently transfected, MSD assay; for IL12 expression, 1 μM BZD: 1 μM Bazedoxifene 24 hours; for IL12 expression, Vehicle: vehicle control 24 hours; for Stabilization Ratio: IL12 with 1 μM BZD versus vehicle
Description: HEK 293T cells were transiently transfected with constructs containing ER-DDs fused to flexi IL12 with or without intervening furin site to generate constructs: OT-001569, OT-001737. Cells were then treated with 1 μM Bazedoxifene (BZD) or vehicle control for 24 hours and IL12 levels were measured by MSD assay Table 11.

HEK293T cells [1] = test: CD19 CAR cell surface expression in transfected HEK293T cells (FACS with CD19-Fc); details: measure of transfection efficiency
Description: (§1) HEK293T cells were transiently transfected with 1 μg DNA from each construct listed in the first column of Table 13 and incubated in DMEM with 10% FBS at 37° C., 5% CO2 for 24 hrs. Following the incubation, 1 μM of Bazedoxifene (BZD) or vehicle was added and cells were further incubated for 24 hrs. Following the incubation, CD19 CAR expression on the cell surface was quantified using FACS with CD19-Fc reagent, as a measure of transfection efficiency. IL12 levels in the media were quantified using MSD assay for p40. The IL12 and CD19 levels are shown in Table 13, where SD indicates standard deviation and SR indicates stabilization ratio. The stabilization ratio was calculated using the average IL12 values.

HEK293T cells [2] = test: IL12 p40 in media of HEK293T cells transfected with IL12-CD19 CAR tandem constructs (MSD assay); details: for IL12p40 DMSO Average: vehicle 24 hrs (absence of ligand)
Description: as §1

primary T cells = test: CD19 CAR expression on lentivirus transduced primary T cells (flow cytometry with CD19-Fc); details: both day 7 and day 9
Description: Primary T cells were activated with CD3/CD28 Dynabeads at 3:1 Bead: Cell ratio overnight, then transduced with OT-001792 lentivirus. On day 7 of the T cell expansion, CAR expression was measured by flow cytometry with CD19-Fc on cells treated overnight in the presence (34% positive) or absence (0.6% positive) of 1 μM Bazedoxifene. After the T cells had expanded for 10 days, they were mixed with CD19-expressing Nalm6 target cells at ratios of 10:1 and 2.5:1 total T cells:Nalm6 cells and cultured for 3 days.
Primary T cells were activated with CD3/CD28 Dynabeads at 3:1 Bead:Cell ratio overnight, then transduced with lentiviruses derived from the indicated constructs. On day 7 or day 9 (as indicated) of the T cell expansion, CAR expression was measured by flow cytometry with CD19-Fc on cells incubated for 24 hours with 1 μM Bazedoxifene or 1 μM Raloxifene or DMSO. […] At day 9 the basal percentage of CAR positive cells for the same constructs was even lower at approximately 20% i.e. in the absence of ligand and about 32-45% in the presence of either ligand. […] This was true at both day 7 and day 9.
Human donor T cells were thawed and activated overnight in the presence of CD3/CD28 Dynabeads at 3:1 bead:cell ratio, then transduced with lentivirus related to OT-002158, or OT-001786. Cells were expanded over the course of 10 days, with fresh media added to maintain cells at around 0.5×10^6 cells/mL. On day 9, an aliquot of cells was removed, and treated with 1 μM Bazedoxifene overnight or DMSO vehicle control, then stained with 10 μg/mL CD19-Fc. Histograms showing CAR expression from a Live Singlet cell gate were plotted.
Human donor T cells were thawed and activated overnight in the presence of CD3/CD28 Dynabeads at 3:1 bead:cell ratio, then transduced with lentivirus from the constructs. Cells were expanded over the course of 10 days, and fresh media was added to maintain cells around 0.5×10^6 cells/ml. On day 9, an aliquot of cells were removed, treated with 1 μM Bazedoxifene overnight, then stained with 10 μg/mL CD19-Fc. Histograms showing CAR expression from a Live Singlet cell gate were plotted. The data are shown in Table 19 and Table 20 where data are presented as % CAR positive cells, where SR indicates stabilization ration.
T cells were transduced with OT-00179, OT-002158, OT-001407 or empty vector and expanded as described herein, frozen on day 10. To confirm the expression and function of this large scale expansion for in vivo use, cells were thawed and incubated overnight in the presence of CD3/28 beads (1:1 bead:cell ratio) and with or without 1 μM Bazedoxifene. FACS staining with 1 μg/mL CD19-Fc was performed to measure the surface expression of CD19-CAR. The data are provided in Table 21 as the percentage CAR positive cells.

| Molecule | IL12 expression, 1 μM BZD (HEK 293T cells) | IL12 expression, Vehicle (HEK 293T cells) | Stabilization Ratio (HEK 293T cells) | Surface CAR (HEK293T cells [1]) | IL12p40 1 μM BZD Average (HEK293T cells [2]; HEK293T, 1 μg DNA, 1 μM Bazedoxifene 24 hrs) | IL12p40 DMSO Average (HEK293T cells [2]; HEK293T, 1 μg DNA) | SR (stabilization ratio) (HEK293T cells [2]; calculated using the average IL12 values, 1 μM BZD versus DMSO) | percentage of CAR positive cells (primary T cells; absence of ligand) | percentage of CAR positive cells (primary T cells; presence of ligand) |
| --- | --- | --- | --- | --- | --- | --- | --- | --- | --- |
| B1 | 109878 | 11529.1 | 9.5 | 0.1% | 75542.57 pg/mL | 6443.64 pg/mL | 11.72 |  |  |
| B2 |  |  |  |  |  |  |  | undetectable | about 5% |
| B3 | 79706.8 | 10186.4 | 7.8 |  |  |  |  |  |  |
| B4 |  |  |  | 40% |  | 203531.67 pg/mL |  |  |  |

Reference: patent publication US20210386788A1, “ER TUNABLE PROTEIN REGULATION” (Obsidian Therapeutics, Inc., priority 2018, published 2021)
